Two molecules from paper PMC5938748 (Molecular microbiology, 2012) can be followed below.

Substitutions are numbered along the chain they refer to.

For series [1], the target named is T1, Bacillus subtilis MutSF30A (B. subtilis, UniProt P49849 1-858, F30A).
T1 sequence (looked up): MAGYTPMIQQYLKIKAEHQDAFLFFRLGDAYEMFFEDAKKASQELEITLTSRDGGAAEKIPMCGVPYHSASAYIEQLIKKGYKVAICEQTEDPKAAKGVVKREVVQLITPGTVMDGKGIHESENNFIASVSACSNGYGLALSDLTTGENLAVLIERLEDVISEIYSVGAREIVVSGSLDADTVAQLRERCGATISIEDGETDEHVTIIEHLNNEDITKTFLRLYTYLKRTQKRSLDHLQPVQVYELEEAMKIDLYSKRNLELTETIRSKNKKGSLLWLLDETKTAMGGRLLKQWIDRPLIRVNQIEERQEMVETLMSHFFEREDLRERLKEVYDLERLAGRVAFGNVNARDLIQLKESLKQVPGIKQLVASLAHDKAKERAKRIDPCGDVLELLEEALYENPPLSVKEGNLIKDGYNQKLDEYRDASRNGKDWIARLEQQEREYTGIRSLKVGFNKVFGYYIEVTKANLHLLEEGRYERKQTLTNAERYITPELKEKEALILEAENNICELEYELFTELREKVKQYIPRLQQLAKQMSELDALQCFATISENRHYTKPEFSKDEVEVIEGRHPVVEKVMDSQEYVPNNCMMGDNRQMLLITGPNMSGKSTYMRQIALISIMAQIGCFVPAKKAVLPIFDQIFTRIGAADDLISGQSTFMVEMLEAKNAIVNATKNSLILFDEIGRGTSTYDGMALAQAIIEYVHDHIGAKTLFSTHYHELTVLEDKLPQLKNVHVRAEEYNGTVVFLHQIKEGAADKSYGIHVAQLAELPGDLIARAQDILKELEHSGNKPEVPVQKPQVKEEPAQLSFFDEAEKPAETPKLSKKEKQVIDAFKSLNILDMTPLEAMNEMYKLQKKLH
In words: far-Western, overlay or dot blot.

For series [2], the target named is T2, Bacillus subtilis MutS (B. subtilis, UniProt P49849 1-858).
T2 sequence (looked up): T1 sequence (looked up) with A30F
As to the kind of experiment: far-Western, overlay or dot blot.

Series [3] has as its target T3, MutS (Bacillus subtilis, UniProt P49849 1-858).
T3 sequence: T1 sequence (looked up) with A30F
As to the kind of experiment: 2-aminopurine fluorescence titration.

B1: Bacillus subtilis processivity clamp DnaN (natural protein, B. subtilis, UniProt P05649 1-378, looked up)
chain: MKFTIQKDRLVESVQDVLKAVSSRTTIPILTGIKIVASDDGVSFTGSDSDISIESFIPKEEGDKEIVTIEQPGSIVLQARFFSEIVKKLPMATVEIEVQNQYLTIIRSGKAEFNLNGLDADEYPHLPQIEEHHAIQIPTDLLKNLIRQTVFAVSTSETRPILTGVNWKVEQSELLCTATDSHRLALRKAKLDIPEDRSYNVVIPGKSLTELSKILDDNQELVDIVITETQVLFKAKNVLFFSRLLDGNYPDTTSLIPQDSKTEIIVNTKEFLQAIDRASLLAREGRNNVVKLSAKPAESIEISSNSPEIGKVVEAIVADQIEGEELNISFSPKYMLDALKVLEGAEIRVSFTGAMRPFLIRTPNDETIVQLILPVRTY
In the case of B1, the binding result in series [1] and in series [2] was “binds” in each case.

B2: 2-AP(+T) T-bulge duplex (dsDNA)
DNA 1: TAAAGGAAGTCGTCTATATATGGTATGACTAAGTGTA
DNA 2: TACACTTAGTCATACCATTATAGACGACTTCCTTTA
modifications: 2-aminopurine at position 18 of strand 1 (written as A)
With B2, the Kd in series [3] was 24 nM.
